# Data: patent US11572408B2, “Treatment of cancer with a semaphorin-4D antibody in combination with an epigenetic modulating agent” (Vaccinex, Inc., priority 2017, dated 2023)
# B1: anti-SEMA4D/MAb 67: anti-SEMA4D monoclonal antibody, VH SEQ ID NO: 9 and VL SEQ ID NO: 10 (antibody, V domains shown)
# VH: QVQLQQSGPELVKPGASVKISCKASGYSFSDYYMHWVKQSPENSLEWIGQINPTTGGASYNQKFKGKATLTVDKSSSTAYMQLKSLTSEESAVYYCTRYYYGRHFDVWGQGTTVTVSS
# VL: DIVMTQSPASLAVSLGQRATISCKASQSVDYDGDSYMNWYQQKPGQPPKLLIYAASNLESGIPARFSGSGSGTDFTLNIHPVEEEDAATYYCQQSNEDPYTFGGGTKLEIK
# modifications: Mab 67 VH; Mab 67 VL
# Legend:
# Type in all cases: in vivo, Balb/c mice
# Colon26 cells [1] = assay: Example 2: Colon26 subcutaneous tumor mouse model, ENT and anti-SEMA4D MAb
# Protocol: Colon26 cells (500,000 cells) were implanted subcutaneously into Balb/c mice. […] Statistical significance was determined using 2-way ANOVA, Mantel Cox Log Rank test, and Fisher's exact test, respectively. Prism reports results as non-significant (ns) at P>0.05, significant (symbolized by “*”) at 0.01<P≤0.05, very significant (“**”) at 0.001<P≤0.01, and extremely significant (“***”) at P≤0.001.
# Colon26 cells [2] = assay: Example 1: Colon26 subcutaneous tumor mouse model, ENT and anti-SEMA4D MAb; conditions: MAb 67 10 mg/kg ip weekly x5 from day 2, ENT 20 mg/kg 3x/week x2 weeks from tumor volume ~300 mm^3, FIG. 2A
# Protocol: Colon26 cells (500,000 cells) were implanted subcutaneously into Balb/c mice. […] Kaplan-Meier survival analysis was performed to assess survival function, change in tumor volume was measured to determine tumor growth rates, and frequency of complete tumor regression was evaluated by determining the percentage of tumor-free mice. Percent complete regression (% CR) was also stratified by tumors that exceeded at least 100 mm^3 before regressing. Statistical significance was determined using Mantel Cox Log Rank test for survival, 2-way ANOVA for tumor volume, and Fisher's exact test for CR. Prism reports results as non-significant (ns) at P>0.05, significant (symbolized by “*”) at 0.01<P≤0.05, very significant (“**”) at 0.001<P≤0.01, extremely significant (“***”) at P≤0.001, and highest significance (“****”) at P≤0.0001.
# Colon26 cells [3] = assay: Example 3: Colon26 subcutaneous tumor mouse model, AZA and anti-SEMA4D MAb; conditions: MAb 67 10 mg/kg ip weekly x4 from day 2, AZA 0.8 mg/kg 3x/week x4 doses from tumor volume ~200 mm^3, FIG. 5A
# Protocol: Colon26 cells (500,000 cells) were implanted subcutaneously into Balb/c mice.
# Kaplan-Meier survival analysis was performed to assess survival function, change in tumor volume was measured to determine tumor growth rates, and frequency of complete tumor regression was evaluated by determining the percentage of tumor-free mice.
Molecule,frequency of complete tumor regression (Colon26 cells [1]; Fisher's exact test) [%],maximal tumor growth delay (TGD) (Colon26 cells [2]) [%],maximal tumor growth delay (TGD) (Colon26 cells [3]) [%],"maximal tumor growth delay (TGD) (Colon26 cells [1]; MAb 67 10 mg/kg weekly x5 from day 2, ENT 20 mg/kg 3x/week x2 weeks from tumor volume ~250 mm^3, FIG. 3A) [%]"
"Nc1ccccc1NC(=O)c1ccc(CNC(=O)OCc2cccnc2)cc1 [ENT, pyridin-3-ylmethyl N-[[4-[(2-aminophenyl)carbamoyl]phenyl]methyl] carbamate, reference compound]",25,214,,
B1,,107,119,119
